The record followed here is patent US20060276387A1 (published 2006).

Sequences and labels used below:
B1: human distal-less homeobox 4 (DLX4), N-terminus HA-tagged (other, not shown: small tags and cut ends)
chain: MTSLPCPLPGRDASKAVFPDLAPVPSVAAAYPLGLSPTTAASPNLSYSRPYGHLLSYPYTEPANPGDSYLSCQQPAALSQPLCGPAEHPQELEADSEKPRLSPEPSERRPQAPAKKLRKPRTIYSSLQLQHLNQRFQHTQYLALPERAQLAAQLGLTQTQVKIWFQNKRSKYKKLLKQNSGGQEGDFPGRTFSVSPCSPPLPSLWDLPKAGTLPTSGYGNSFGAWYQHHSSDVLASPQMM
modifications: 35S-methionine-labeled (in the pull-down)
B2: human PHD finger protein 1 (PHF1), N-terminus HA-tagged (other, not shown: small tags and cut ends)
chain: MAQPPRLSRSGASSLWDPASPAPTSGPRPRLWEGQDVLARWTDGLLYLGTIKKVDSAREVCLVQFEDDSQFLVLWKDISPAALPGEELLCCVCRSETVVPGNRLVSCEKCRHAYHQDCHVPRAPAPGEGEGTSWVCRQCVFAIATKRGGALKKGPYARAMLGMKLSLPYGLKGLDWDAGHLSNRQQSYCYCGGPGEWNLKMLQCRSCLQWFHEACTQCLSKPLLYGDRFYEFECCVCRGGPEKVRRLQLRWVDVAHLVLYHLSVCCKKKYFDFDREILPFTSENWDSLLLGELSDTPKGERSSKLLSALNSHKDRFISGREIKKRKCLFGLHARMPPPVEPPTGDGALTSFPSGQGPGGGVSRPLGKRRRPEPEPLRRRQKGKVEELGPPSAVRNQPEPQEQRERAHLQRALQASVSPPSPSPNQSYQGSSGYNFRPTDARCLPSSPIRMFASFHPSASTAGTSGDSGPPDRSPLELHIGFPTDIPKSAPHSMTASSSSVSSPSPGLPRRSAPPSPLCRSLSPGTGGGVRGGVGYLSRGDPVRVLARRVRPDGSVQYLVEWGGGGIF
modifications: 35S-methionine-labeled (in the pull-down)
B3: human hepatocyte nuclear factor 3-gamma (HNF3G), N-terminus HA-tagged (other, not shown: small tags and cut ends)
chain: MLGSVKMEAHDLAEWSYYPEAGEVYSPVTPVPTMAPLNSYMTLNPLSSPYPPGGLPASPLPSGPLAPPAPAAPLGPTFPGLGVSGGSSSSGYGAPGPGLVHGKEMPKGYRRPLAHAKPPYSYISLITMAIQQAPGKMLTLSEIYQWIMDLFPYYRENQQRWQNSIRHSLSFNDCFVKVARSPDKPGKGSYWALHPSSGNMFENGCYLRRQKRFKLEEKVKKGGSGAATTTRNGTGSAASTTTPAATVTSPPQPPPPAPEPEAQGGEDVGALDCGSPASSTPYFTGLELPGELKLDAPYNFNHPFSINNLMSEQTPAPPKLDVGFGGYGAEGGEPGVYYQGLYSRSLLNAS
modifications: 35S-methionine-labeled (in the pull-down)

In the test the target is human IPF1, N-terminus FLAG-tagged (from pcDNA-FLAG-IPF1) (human, UniProt P52945 1-283, limits assumed). Nature of the test: cell-based or functional assay.
Sequence of human IPF1, N-terminus FLAG-tagged (from pcDNA-FLAG-IPF1) (P52945 whole entry): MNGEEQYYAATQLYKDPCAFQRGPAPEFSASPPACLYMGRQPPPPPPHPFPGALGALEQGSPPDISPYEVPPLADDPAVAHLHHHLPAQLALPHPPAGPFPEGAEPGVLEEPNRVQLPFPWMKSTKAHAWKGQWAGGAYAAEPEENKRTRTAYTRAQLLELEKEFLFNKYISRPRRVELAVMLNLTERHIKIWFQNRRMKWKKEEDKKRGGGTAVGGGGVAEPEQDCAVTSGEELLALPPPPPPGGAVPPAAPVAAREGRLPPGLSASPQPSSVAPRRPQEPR
B1: the “IPF1-dependent human insulin promoter activity (luciferase reporter, HeLa cells), inhibition” value was about 60%. For the molecule B2, the “IPF1-dependent human insulin promoter activity (luciferase reporter, HeLa cells), inhibition” value is about 25%. For the molecule B3, the “IPF1-dependent human insulin promoter activity (luciferase reporter, HeLa cells), inhibition” value was about 45%.
